Experimental data published in publication PMC9270954.

Target: GST–Rac1a (full-length Dictyostelium Rac1a as a GST fusion, GTP-bound form) (Dictyostelium) (UniProt P34144)

Row | Substance | fold activation of the GTP hydrolysis rate of GST–Rac1a (10 µM) by 2.5 µM GST–GAP-RΔA, 10 min at 20°C, free phosphate by CytoPhos; Rac1a alone normalized to 1.0 | fold activation of the GTP hydrolysis rate of GST–Rac1a (10 µM) by 2.5 µM GST–GAP, 10 min at 20°C, free phosphate by CytoPhos; Rac1a alone normalized to 1.0
1 | GST–GAP-RΔA (GAP domain of CARMIL-GAP with the conserved arginine changed to alanine, as a GST fusion) (domain or fragment) | 1.74 fold | –
2 | GST–GAP (isolated GAP domain of CARMIL-GAP, residues 715–858, as a GST fusion) (domain or fragment) | – | 5.8 fold
